Experimental data reported in US20230248825.

Legend:
Assay in all cases: cell_activity
Conditions in all cases: primary human T cells; as pair; two GMCSF TALEN constructs used, value not split by construct
[1] = system: GMCSF_Tal_1 TALEN right monomer (artificial)
[2] = system: GMCSF_Tal_2 TALEN left monomer (artificial)
[3] = system: GMCSF_Tal_2 TALEN right monomer (artificial)
[4] = system: GMCSF_Tal_1 TALEN left monomer (artificial)

Sequence: CACTGTGGCCTGCAGCA (double strand) [GMCSF_Tal_1 right half-site]
- activity (% reduction in GMCSF secretion) [1]: 90

Sequence: TCCTGAACCTGAGTAGA (double strand) [GMCSF_Tal_2 left half-site]
- activity (% reduction in GMCSF secretion) [2]: 90

Sequence: TGAGATGGTAAGTGAGA (double strand) [GMCSF_Tal_2 right half-site]
- activity (% reduction in GMCSF secretion) [3]: 90

Sequence: TGTGGCTGCAGAGCCTG (double strand) [GMCSF_Tal_1 left half-site]
- activity (% reduction in GMCSF secretion) [4]: 90
